Tests used:
[1] = target: T1, recombinant human domain 1-3His6 of the cation-independent mannose-6-phosphate receptor (human, UniProt P11717 41-467); experiment: BLI exp 1, dissoc pH 5
T1 construct: Biotinylated (NHS-PEG4-biotin) for BLI; Glycosylated; also called hDom1-3His6; hCI-M6PRD1-D3
Experimental: (§1) For each of the 11 anti-CI-M6PR VHHs, a biolayer interferometry (BLI) experiment was performed in which the hDom₁₋₃His₆ was biotinylated and coupled to streptavidin biosensor tips. Afterwards, the tips were incubated with serially diluted VHHs during the association phase and dissociation was performed at pH 7.4. Similarly, dissociation was performed at pH 7.0, pH 6.0 and pH 5.0 as well after regeneration of the biosensor tips. […] The anti-CI-M6PR antibody (clone 2G11) and GBP were used as positive and negative controls, respectively.
(§2) Analysis of the binding kinetics was performed using an Octet Red96 (FortéBio) device with Streptavidin SA Biosensor tips (VWR 733-2145). Therefore, 1 mL of human domain₁₋₃His₆ (0.5 mg/mL in 50 mM MES, 150 mM NaCl, pH 6.5) was incubated at room temperature for 30 minutes with EZ-Link™ NHS-PEG4-Biotin (1 mg) (Thermo Fischer A39259) and NaHCO₃ (100 mM). Biotinylated human domain₁₋₃His₆ was purified using a Zeba spin desalting Column™ (7K MWCO, 2 mL, Thermo Fischer 89890) and 1 μg/mL was used for immobilization on the Streptavidin SA Biosensor tips. The loaded tips were dipped into a particular anti-CI-M6PR VHH solution, serially diluted in kinetics buffer (0.2M NaH₂PO₄, 0.1M Na⁺ citrate, 0.01% BSA, 0.002% Tween20, pH 7.4). This was followed by dissociation of the particular anti-CI-M6PR VHH in kinetics buffer of pH 7.4, followed by regeneration in Glycine (10 mM, pH 3) and neutralisation. Same cycle was repeated but the dissociation was performed at pH 7.0, 6.0, 5.0, 4.5 and 4.0. A reference well and reference sensors were subtracted from ligand sensors afterwards and Savitsky-Golay filtering was applied on the data. Fitting of the data was performed using a 1:1 model, grouped per pH of dissociation.

[2] = target: T1, recombinant human domain 1-3His6 of the …; experiment: BLI exp 1, dissoc pH 6
Experimental: as §1, §2

[3] = target: T1, recombinant human domain 1-3His6 of the …; experiment: BLI exp 2, dissoc pH 5
Experimental: as §1
Analysis of the binding kinetics was performed using an Octet Red96 (FortéBio) device with Streptavidin SA Biosensor tips (VWR, 733-2145). To this end, 1 mL of hCI-M6PR_D1-D3 (0.5 mg/mL in 50 mM MES, 150 mM NaCl, pH 6.5) was incubated at room temperature for 30 minutes with a two-fold molar excesses of EZ-Link™ NHS-PEG₄-Biotin (Thermo Fischer, A39259) and NaHCO₃ (100 mM, pH 8.3). Biotinylated hCIMPR_D1-D3 was purified using a Zeba spin desalting column (Thermo Fischer, 89890) and protein concentration was calculated by measuring the absorbance at 280 nm (extinction coefficient 50320 M¹ cm⁻¹). Two-fold biotin-labelled antigen was loaded on the tips (2.5 μg/mL) and subsequently dipped into a particular anti-CI-M6PR VHH-containing solution (ranging from 0-100 nM). Serial VHH dilutions were made in kinetics buffer (0.2 M Na₂HPO₄, 0.1 M Na⁺ citrate, 0.01% BSA, 0.002% Tween20, pH 7.4). After association (100 sec), dissociation was conducted (500 sec) for each anti-CI-M6PR VHH in the kinetics buffer, followed by biosensor regeneration in glycine (10 mM, pH 3) and neutralisation. The same cycle was repeated with dissociation performed in kinetics buffer of pH 7.0, 6.5, 6.0, 5.5, and 5.0.
A reference well and reference sensors were subtracted from ligand sensors afterwards and Savitsky-Golay filtering was applied on the data. Fitting of the data was performed using a 1:1 model, grouped per dissociation pH.

[4] = target: T1, recombinant human domain 1-3His6 of the …; experiment: BLI exp 1, dissoc pH 7.4
Experimental: as §1, §2

[5] = target: T1, recombinant human domain 1-3His6 of the …; experiment: BLI at pH 7.4, 1st of 2 repeats
Experimental: as §1, §2

[6] = target: T1, recombinant human domain 1-3His6 of the …; experiment: BLI at pH 7.4, 2nd of 2 repeats
[7] = target: T1, recombinant human domain 1-3His6 of the …; experiment: ELISA on coated antigen, 1st of 2 repeats
Experimental: (§3) FIGS. 4A-4B. Affinity of anti-CI-M6PR VHHs for recombinant human CI-M6PR Domain 1-3His₆ determined by ELISA. A & B. Measurements for each of the 11 anti-CI-M6PR VHHs in serial dilution binding to the coated human CI-M6PR Domain 1-3His₆ antigen. Detection was performed using an anti-VHH antibody coupled to HRP, and measured as the absorbance of the TMB substrate at 450 nm, correlating to the amount of bound VHH as plotted at the Y-axis. The Log₁₀ concentrations of the serially diluted VHHs were plotted at the X-axis. […] A & B represent replicates but using a different concentration of human CI-M6PR Domain 1-3His₆ (in (FIG. 4A): 0-0.75 μM and in (FIG. 4B): 0-1 μM).
(§4) We evaluated the affinity of the VHHs against the hDom₁₋₃His₆ using ELISA. Coated hDom₁₋₃His₆ was incubated with serially diluted VHH that was afterwards detected using an anti-VHH antibody, coupled to HRP.

[8] = target: T1, recombinant human domain 1-3His6 of the …; experiment: ELISA on coated antigen, 2nd of 2 repeats
Experimental: as §3, §4

B1: anti-CI-M6PR VHH5 (VHH)
VHH: QVQLQESGGGLVQAGGSLKLSCAAAGRTFSRLAMGWFRQAPGKEREFVAAISENGDSIHYSDSVKGRFAVSRDNAKNTVYLQMNSLKPEDTAIYYCAADRAAYYCSGSGCYPSRAPAAASYDYWGQGTQVTVSS
notes: His6-tagged; made in Pichia pastoris, later also in E. coli WK6
Kd [1]: 5.76 nM | koff [1]: 0.00861 s⁻¹ | kon [1]: 1.5e+06 M⁻¹ s⁻¹ | Kd [2]: 0.0111 nM | koff [2]: 1.52e-05 s⁻¹ | kon [2]: 1.38e+06 M⁻¹ s⁻¹ | koff [3]: 0.033 s⁻¹ | kon [3]: 2.33e+08 M⁻¹ s⁻¹ | Kd [4]: 0.0903 nM | koff [4]: 0.000124 s⁻¹ | kon [4]: 1.37e+06 M⁻¹ s⁻¹ | Kd [5]: 0.0903 nM | koff [5]: 0.000124 s⁻¹ | kon [5]: 1.37e+06 M⁻¹ s⁻¹ | Kd [6]: ~0.1 nM | koff [6]: 0.00018 s⁻¹ | kon [6]: 1.8e+06 M⁻¹ s⁻¹ | EC50 [7]: 0.0816 nM | EC50 [8]: 0.0647 nM

B2: anti-CI-M6PR VHH1 (VHH)
VHH: QVQLQESGGGLVQPGGSLRLSCVASGFTFDRYWMNWLRQIPGKEIEWVSTINTGGTGTYYDDSVKGRFSISRDDAKNTLYLTMNSLKTEDTAVYYCARGATYYRGNSAIRGQGTQVTVSS
notes: as for B1
Kd [1]: 24.7 nM | koff [1]: ~0.0988 s⁻¹ | kon [1]: 4e+06 M⁻¹ s⁻¹ | Kd [2]: 12.7 nM | koff [2]: ~0.0165 s⁻¹ | kon [2]: 1.3e+06 M⁻¹ s⁻¹ | koff [3]: 0.072 s⁻¹ | Kd [4]: 7.44 nM | koff [4]: ~0.00606 s⁻¹ | kon [4]: 814000 M⁻¹ s⁻¹ | Kd [5]: 7.44 nM | koff [5]: ~0.00606 s⁻¹ | kon [5]: 814000 M⁻¹ s⁻¹ | Kd [6]: ~11.2 nM | koff [6]: 0.0099 s⁻¹ | kon [6]: 1e+06 M⁻¹ s⁻¹ | EC50 [7]: 1.78 nM | EC50 [8]: 19.4 nM

B3: anti-CI-M6PR VHH6 (VHH)
VHH: QVQLQESGGGLVQAGGSLRLSCAVSGSISSIGGMGWFRQAPGKQREFVAVILNNSGMTSYADSVKGRFTISRGNSKNTMYLQMNSLKPEDTAVYYCNYSGYWGQGTQVTVSS
notes: His6-tagged; made in E. coli
Kd [1]: 8.5 nM | koff [1]: 0.0156 s⁻¹ | kon [1]: 1.84e+06 M⁻¹ s⁻¹ | Kd [2]: 1.56 nM | koff [2]: 0.00242 s⁻¹ | kon [2]: 1.55e+06 M⁻¹ s⁻¹ | koff [3]: 0.0156 s⁻¹ | kon [3]: 330000 M⁻¹ s⁻¹ | Kd [4]: 3.35 nM | koff [4]: 0.00352 s⁻¹ | kon [4]: 1.05e+06 M⁻¹ s⁻¹ | Kd [5]: 3.35 nM | koff [5]: 0.00352 s⁻¹ | kon [5]: 1.05e+06 M⁻¹ s⁻¹ | Kd [6]: 4.74 nM | koff [6]: 0.00352 s⁻¹ | kon [6]: 743000 M⁻¹ s⁻¹ | EC50 [7]: 84.2 nM

B4: anti-CI-M6PR VHH7 (VHH)
VHH: QVQLQESGGGLVQPGGSLRLSCAASGIIFSDNRMDWYRQAPGKQREWVATLASYGWKTYADSVKGRFTISRDNTKNTVYLRMNSLKPEDTAVYYCKASSPVLNDIWGQGTQVTVSS
notes: His6-tagged (Pichia pastoris)
Kd [1]: 11.7 nM | koff [1]: 0.0542 s⁻¹ | kon [1]: 4.62e+06 M⁻¹ s⁻¹ | Kd [2]: 8.75 nM | koff [2]: 0.0321 s⁻¹ | kon [2]: 3.67e+06 M⁻¹ s⁻¹ | koff [3]: 0.055 s⁻¹ | kon [3]: 55000 M⁻¹ s⁻¹ | Kd [4]: 10.8 nM | koff [4]: 0.00999 s⁻¹ | kon [4]: 924000 M⁻¹ s⁻¹ | Kd [5]: 10.8 nM | koff [5]: 0.00999 s⁻¹ | kon [5]: 924000 M⁻¹ s⁻¹ | Kd [6]: 9.08 nM | koff [6]: 0.0118 s⁻¹ | kon [6]: 1.3e+06 M⁻¹ s⁻¹ | EC50 [7]: 0.0109 nM | EC50 [8]: 1.19 nM

B5: anti-CI-M6PR VHH4 (VHH)
VHH: QVQLQESGGGLVQAGGSLRLSCAASGRTFSNYVMGWFRQAPGKEREFVGSISQGGKMTYYPDSVKGRFTISRDNAKNTMYLQMDGLKPEDTAVYYCAVSRGYPMVRVSEVDYWGQGTQVTVSS
notes: His6-tagged; made in Pichia pastoris
Kd [1]: 10 nM | koff [1]: 0.00729 s⁻¹ | kon [1]: 729000 M⁻¹ s⁻¹ | Kd [2]: 3.18 nM | koff [2]: 0.00101 s⁻¹ | kon [2]: 316000 M⁻¹ s⁻¹ | koff [3]: 0.00729 s⁻¹ | kon [3]: 729000 M⁻¹ s⁻¹ | Kd [4]: 2.33 nM | koff [4]: 0.00133 s⁻¹ | kon [4]: 571000 M⁻¹ s⁻¹ | koff [6]: 0.00133 s⁻¹ | EC50 [8]: 70.1 nM

B6: anti-CI-M6PR VHH9 (VHH)
VHH: QVQLQESGGGLVQAGGSLRLSCAASGTILSIKTMGWYRQAPGKEREWVATITSSSIPMYADSVKGRFTISRDDAKNTVYLQMNSLKPEDTGVYYCNAPWTDYWGQGTQVTVSS
notes: as for B5
Kd [1]: 84.1 nM | koff [1]: 0.0496 s⁻¹ | kon [1]: 590000 M⁻¹ s⁻¹ | Kd [2]: 0.674 nM | koff [2]: 0.00122 s⁻¹ | kon [2]: 1.81e+06 M⁻¹ s⁻¹ | koff [3]: 0.0496 s⁻¹ | kon [3]: 590000 M⁻¹ s⁻¹ | Kd [4]: 0.282 nM | koff [4]: 0.000444 s⁻¹ | kon [4]: 1.57e+06 M⁻¹ s⁻¹ | Kd [5]: 0.282 nM | koff [5]: 0.000444 s⁻¹ | kon [5]: 1.57e+06 M⁻¹ s⁻¹ | Kd [6]: 0.282 nM | koff [6]: 0.000444 s⁻¹ | kon [6]: 1.57e+06 M⁻¹ s⁻¹ | EC50 [7]: 0.00642 nM | EC50 [8]: 0.251 nM

B7: anti-CI-M6PR VHH8 (VHH)
VHH: QVQLQESGGGLVQAGGSLRLSCEASGRTFNTYNWGWFRQAPGKEREFVAAIRWSSSKTSYADSVKGRFTISRDNAKNTIYLQMNSLKPEDTAVYYCAASIVDFTTNPSHFGSWGQGTQVTVSS
notes: His6-tagged (Pichia pastoris)
Kd [1]: 109 nM | koff [1]: 0.0328 s⁻¹ | kon [1]: 302000 M⁻¹ s⁻¹ | Kd [2]: 12.7 nM | koff [2]: 0.00293 s⁻¹ | kon [2]: 231000 M⁻¹ s⁻¹ | koff [3]: 0.084 s⁻¹ | kon [3]: 2.4e+06 M⁻¹ s⁻¹ | Kd [4]: 1.69 nM | koff [4]: 0.000787 s⁻¹ | kon [4]: 465000 M⁻¹ s⁻¹ | Kd [5]: 1.69 nM | koff [5]: 0.000787 s⁻¹ | kon [5]: 465000 M⁻¹ s⁻¹ | koff [6]: 0.00065 s⁻¹ | EC50 [7]: 0.11 nM | EC50 [8]: 0.165 nM

B8: anti-CI-M6PR VHH3 (VHH)
VHH: QVQLQESGGGLVQPGGSLRLSCAAFGLNFKNFDMIWFRQAPGEERDIVAAISSSSSTIWYEDSVKGRFTISRDNAKNTVYLQMNSLKPEDTAVYYCAAALTSWRRPDYWGQGTQVTVSS
notes: as for B5
Kd [1]: 1.36 nM | koff [1]: 0.00149 s⁻¹ | kon [1]: 1.1e+06 M⁻¹ s⁻¹ | Kd [2]: 0.27 nM | koff [2]: 0.000851 s⁻¹ | kon [2]: 3.16e+06 M⁻¹ s⁻¹ | koff [3]: 0.000369 s⁻¹ | kon [3]: 55600 M⁻¹ s⁻¹ | Kd [4]: ≤ 0.000117 nM | koff [4]: ≤ 1e-07 s⁻¹ | kon [4]: 853000 M⁻¹ s⁻¹ | Kd [5]: ≤ 0.000117 nM | koff [5]: ≤ 1e-07 s⁻¹ | kon [5]: 853000 M⁻¹ s⁻¹ | Kd [6]: 7.1 nM | koff [6]: 0.000345 s⁻¹ | kon [6]: 48600 M⁻¹ s⁻¹ | EC50 [7]: 0.0379 nM | EC50 [8]: 0.104 nM

Source: patent publication US20250263490A1 (VIB VZW, published 2025)
